In US11649275B2, “Dual agonist fusion proteins” (Duke University, priority 2018, dated 2023):
“Also recorded” adds a separate entry of the source.

Assays:
GLP-1R = target: T1, GLP-1R (Homo sapiens, UniProt P43220); assay: cAMP production assay (GLP-1R agonism, HEK293 cells with cAMP-inducible luciferase reporter); format: cell-based; details: fusion of GLP1 to ELP or ELP-FGF21
T1 construct: expressed in transfected cells; host or cells: HEK293
Method: This time, however, the intended cleavage substrate was a GA leader instead of the AA leader. […] Data were fit to a three-parameter dose-response curve to determine EC50s.
Cells were seeded at 1×10^5 cells/cm^2 into 96 well plates and adhered overnight. […] Luminescence of the supernatant samples were measured on a Victor X3 Plate Reader (Perkin Elmer) and normalized to zero drug treatment control wells. Data were fit to a three-parameter dose-response curve to determine EC50s using GraphPad Prism 8 software.

[1] = LCST phase behavior characterization (turbidity OD350 vs temperature); format: physicochemical
Method: Phase behavior characterization: The lower critical solution temperature (LCST) phase transition behavior of ELP fusion proteins was evaluated by monitoring the OD350 of solutions in PBS as a function of temperature on a Cary 300 UV-visible spectrophotometer equipped with a multicell thermoelectric temperature controller (Agilent Technologies, Santa Clara, Calif.). Heating and cooling were set to a rate of 1° C./min. The Tt was defined as the temperature at which the optical density reached 50% of its maximal value.

db/db mice [2] = assay: Short-term co-treatment pilot study, 48 h after single s.c. injection; format: in vivo; details: 48 h post-injection, 1000 nmol/kg s.c.
Method: (§1) Animals: In vivo studies were conducted in accordance with the AAALAC-accredited Duke Institutional Animal Care and Use Committee. 5-week-old B6.BKS(D)-Lepr^db/J (“db/db”) male mice were purchased from Jackson Laboratory (Bar Harbor, Me.) and maintained on a 12 h/12 h light/dark cycle with ad libitum access to food (LabDiet 5053) and water. Animals were group-housed and allowed 1-week acclimation before stratification into control and treatment groups based on baseline ambient blood glucose levels and body weights.
(§2) ELP fusion treatments: ELP fusion proteins were administered at 150-200 μM concentration via injection into the subcutaneous (s.c.) space on the hind flank. Animals received either a single s.c. injection for short-term studies or weekly s.c. injections for chronic studies. The “1:1 mixture” treatment group received a single injection containing an equimolar mixture of GLP1-ELP and ELP-FGF21, with the indicated dose referring to the dose of each respective fusion in the mixture. Vehicle control refers to PBS.
(§3) Ambient blood glucose measurements: Blood glucose levels were measured from a tail vein puncture with an AlphaTRAK 2 Blood Glucose Meter (Zoetis, Parsippany-Troy Hills, N.J.) every 24 h, 1-2 h following onset of the light cycle. […] Areas under the curve (AUCs) were calculated with GraphPad Prism 8 software using the trapezoidal rule and setting a Y=0 baseline. […]

[3] = Pharmacokinetic study of radiolabeled ELP fusion depots after s.c. injection; format: in vivo, mice; details: for Cmax / TMAX / AUC / T1/2, ABS (absorption half-life): db/db mice, 1000 nmol/kg; for Cmax / TMAX / AUC / T1/2, ABS (absorption half-life) / steady plasma drug levels: single s.c. injection; for Cmax / TMAX: radiolabeled construct; for AUC: extrapolated to 16 days post-administration; for T1/2, ABS (absorption half-life): from slope of terminal linear regression; for R-squared, first-order model / R-squared, zero-order model / Regression model, first-order elimination (Log(y)): fit to terminal portion of plasma concentration vs time data; for steady plasma drug levels: out to day 10 / for at least 10 days
Method: Pharmacokinetic studies: Tyrosine residues on GLP1-ELP, ELP-FGF21, or GLP1-ELP-FGF21 fusion proteins were reacted with Na^125I radionuclide (Perkin Elmer) using Pierce Pre-Coated Iodination Tubes (Thermo Fisher Scientific) and the indirect method for iodination. Radiolabeled protein was purified from unreacted radionuclide with Zeba Spin Desalting Columns (Thermo Fisher Scientific). Activities of radiolabeled constructs were measured with an Atomlab 400 Dose Calibrator (Biodex, Shirley, N.Y.) and correlated to protein concentration. Mice received a single s.c. injection of radiolabeled fusion, and 10 μL blood samples were collected at frequent time points from the tail vein and stored at room temperature until radioactivity quantification. Sample counts were measured at the end of the study on a Wallac Wizard 1480 Automatic Gamma Counter (Perkin Elmer). An activity vs. count standard curve was used to convert sample counts to activities, and subsequently to moles of drug.
Pharmacokinetic analysis: The maximum serum concentration (Cmax) was recorded as observed, as well as time to reach Cmax (tmax). […] Absorption half-life (t1/2, abs) was estimated from the slope of the linear regression curve. When a drug administered at an extravascular site yields a terminal half-life greater than that resulting from an i.v. bolus, the terminal half-life reflects the absorption half-life.

db/db mice [4] = assay: Chronic dosing study, weekly s.c. for four weeks (GTT, % HbA1c, body weight, food intake); format: in vivo; details: for GTT AUC: i.p. glucose tolerance test 3 days after the first dosing cycle; for fasting plasma insulin: prior to glucose challenge; for change in % HbA1c from days 0 to 27: weekly 1000 nmol/kg s.c. for four weeks; for weight gain on chronic treatment: weekly 1000 nmol/kg s.c.
Method: as §1, §2
Food Intake: For food intake studies, animals were group-housed 4 per cage, and food pellets were weighed every 1-2 days. Total cage food intake was calculated for each time increment, averaged per animal, and summed over the course of the study to yield a cumulative food intake per mouse. N=8 treatment groups were divided into 2 cages, allowing for an n=2 food intake standard error calculation.

db/db mice [5] = assay: GLP1-ELP control, single s.c. injection, glycemia and body weight for 10 days; format: in vivo; details: 1000 nmol/kg single s.c.
Method: as §1, §2, §3

db/db mice [6] = assay: Single s.c. injection dose study of GLP1-ELP-FGF21 (ambient blood glucose, body weight); format: in vivo
Method: as §1, §2
Ambient blood glucose measurements: Blood glucose levels were measured from a tail vein puncture with an AlphaTRAK 2 Blood Glucose Meter (Zoetis, Parsippany-Troy Hills, N.J.) every 24 h, 1-2 h following onset of the light cycle. Data are presented as either raw values, or as a magnitude change from a mean baseline established from three independent measurements collected prior to treatment. Areas under the curve (AUCs) were calculated with GraphPad Prism 8 software using the trapezoidal rule and setting a Y=0 baseline. Treatment group AUCs were normalized to the vehicle-treated group where indicated.

db/db mice [7] = assay: Hypoglycemia safety check (16 h extended fast, glucose-stimulated insulin in GTT)
Method: Glucose tolerance test: Animals were fasted at the onset of the light cycle for 5 h with ad libitum access to water, then injected via intraperitoneal (i.p.) with 0.75 g/kg D-glucose. Blood glucose levels were measured from a tail snip with a Contour Blood Glucose Meter (Bayer, Leverkusen, Germany) at t=0 (before glucose injection), 10, 20, 30, 60, 90, and 120 min.
Extended fast blood glucose measurements: Animals were fasted for 16 h starting at 4:00 PM with ad libitum access to water, after which blood glucose levels were measured from the tail vein as described for ambient blood glucose measurements.
Blood parameters: 50 μL blood samples were collected from the tail veins following a 6 h fast using Microvette EDTA coated tubes (Sarstedt), which were placed on ice until centrifugation at 5000 rcf at 4° C. for 15 min. Plasma supernatants were stored at −80° C. until time of assay. Plasma insulin levels were quantified using the Mercodia Mouse Insulin ELISA, according to the manufacturers' instructions.

[8] = 5 h fast, 3 days after the first dosing cycle, 1000 nmol/kg s.c.
[9] = 3 days after the first dosing cycle

T1 sequence (P43220 24-463, species assumed): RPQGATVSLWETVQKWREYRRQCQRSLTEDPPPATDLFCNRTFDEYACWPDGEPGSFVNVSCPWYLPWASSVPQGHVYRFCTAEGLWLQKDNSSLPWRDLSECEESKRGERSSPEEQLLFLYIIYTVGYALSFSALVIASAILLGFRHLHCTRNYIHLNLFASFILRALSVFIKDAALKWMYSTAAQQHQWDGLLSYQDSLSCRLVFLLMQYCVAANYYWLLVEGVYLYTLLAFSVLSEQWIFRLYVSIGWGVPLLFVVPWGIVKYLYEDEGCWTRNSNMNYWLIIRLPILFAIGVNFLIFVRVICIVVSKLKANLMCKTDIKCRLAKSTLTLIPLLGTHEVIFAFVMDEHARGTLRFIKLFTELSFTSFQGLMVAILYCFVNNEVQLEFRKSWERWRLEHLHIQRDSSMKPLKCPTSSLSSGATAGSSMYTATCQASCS

Molecule	Cmax [3] [nM]	TMAX [3] [H]	AUC [3] [NM*D]	T1/2, ABS (absorption half-life) [3] [D]	R-squared, first-order model [3]	R-squared, zero-order model [3]	Regression model, first-order elimination (Log(y)) [3]	steady plasma drug levels [3]	fasting blood glucose levels (db/db mice [4]; [8]) [mg/dL]	food intake (db/db mice [4]; four-week treatment period)	GTT AUC (db/db mice [4])	fasting plasma insulin (db/db mice [4]; [9])	change in % HbA1c from days 0 to 27 (db/db mice [4])	weight gain on chronic treatment (db/db mice [4]; four-week treatment period) [%]	other results
GLP1-ELP: Single agonist control: GLP-1 analog fused to ELP of 120 VPGXaaG repeats, 4:1 Val:Ala; SEQ ID NO:16 (protein) AAHGEGTFTSDVSSYLEEQAAKEFIAWLVKGAGVGVPGVGVPGAGVPGVGVPGVGVPGVGVPGVGVPGAGVPGVGVPGVGVPGVGVPGVGVPGAGVPGVGVPGVGVPGVGVPGVGVPGAGVPGVGVPGVGVPGVGVPGVGVPGAGVPGVGVPGVGVPGVGVPGVGVPGAGVPGVGVPGVGVPGVGVPGVGVPGAGVPGVGVPGVGVPGVGVPGVGVPGAGVPGVGVPGVGVPGVGVPGVGVPGAGVPGVGVPGVGVPGVGVPGVGVPGAGVPGVGVPGVGVPGVGVPGVGVPGAGVPGVGVPGVGVPGVGVPGVGVPGAGVPGVGVPGVGVPGVGVPGVGVPGAGVPGVGVPGVGVPGVGVPGVGVPGAGVPGVGVPGVGVPGVGVPGVGVPGAGVPGVGVPGVGVPGVGVPGVGVPGAGVPGVGVPGVGVPGVGVPGVGVPGAGVPGVGVPGVGVPGVGVPGVGVPGAGVPGVGVPGVGVPGVGVPGVGVPGAGVPGVGVPGVGVPGVGVPGVGVPGAGVPGVGVPGVGVPGVGVPGVGVPGAGVPGVGVPGVGVPGVGVPGVGVPGAGVPGVGVPGVGVPGVGVPGVGVPGAGVPGVGVPGVGVPGVGVPGVGVPGAGVPGVGVPGVGVPG	369 ± 14	4.8 ± 0.7	2023 ± 67	20.8 ± 3.2	0.61	0.58	Log(y) = −0.01628x + 2.263	around 100 nM	167 ± 11	significant reduction in food intake	outperformed ELP-FGF21 in improving glucose tolerance	significant increase in fasting plasma insulin	+1.0±0.2%	25.3±1.9	increase in GLP-1R EC50 compared to native GLP-1 (GLP-1R): approximately ten-fold; also recorded: ten-fold increase; Tt (transition temperature) ([1]; PBS, injection-relevant concentration of 200 μM): 27.5 °C; body weight, % change from pre-injection weight (db/db mice [2]): −0.2±0.6%; plasma levels of component of 1:1 mixed depot ([3]; 1:1 mixture, 1000 nmol/kg each, steady for 7 days): around 100 nM; % HbA1c elevation relative to control (db/db mice [4]; four-week study): significantly reduced % HbA1c elevation relative to control; effect on body weight / weight gain compared to vehicle (db/db mice [4]; four-week treatment period): significantly inhibited weight gain; weight gain compared to control mice (db/db mice [5]; daily for 10 days): significantly inhibited weight gain; ambient blood glucose levels after treatment (db/db mice [5]; reduced from >300 mg/dL for the duration of the 10 day study): < 200 mg/dL
GLP1-ELP-FGF21: Fusion of GLP-1 analog, ELP (120 VPGXaaG repeats, 4:1 Val:Ala) and mutated murine FGF21; SEQ ID NO:15 (protein) AAHGEGTFTSDVSSYLEEQAAKEFIAWLVKGAGVGVPGVGVPGAGVPGVGVPGVGVPGVGVPGVGVPGAGVPGVGVPGVGVPGVGVPGVGVPGAGVPGVGVPGVGVPGVGVPGVGVPGAGVPGVGVPGVGVPGVGVPGVGVPGAGVPGVGVPGVGVPGVGVPGVGVPGAGVPGVGVPGVGVPGVGVPGVGVPGAGVPGVGVPGVGVPGVGVPGVGVPGAGVPGVGVPGVGVPGVGVPGVGVPGAGVPGVGVPGVGVPGVGVPGVGVPGAGVPGVGVPGVGVPGVGVPGVGVPGAGVPGVGVPGVGVPGVGVPGVGVPGAGVPGVGVPGVGVPGVGVPGVGVPGAGVPGVGVPGVGVPGVGVPGVGVPGAGVPGVGVPGVGVPGVGVPGVGVPGAGVPGVGVPGVGVPGVGVPGVGVPGAGVPGVGVPGVGVPGVGVPGVGVPGAGVPGVGVPGVGVPGVGVPGVGVPGAGVPGVGVPGVGVPGVGVPGVGVPGAGVPGVGVPGVGVPGVGVPGVGVPGAGVPGVGVPGVGVPGVGVPGVGVPGAGVPGVGVPGVGVPGVGVPGVGVPGAGVPGVGVPGVGVPGVGVPGVGVPGAGVPGVGVPGVGVPGVGVPGVGVPGAGVPGVGVPGVGVPGAYPIPDSSPLLQFGGQVRQRYLYTDDDQDTEAHLEIREDGTVVGAAHRSPESLLELKALKPGVIQILGVKASRFLCQQPDGALYGSPHFDPEACSFRERLLEDGYNVYQSEAHGLPLRLPQKDSPNQDATSWGPVRFLPMPGLLHEPQDQAGFLPPEPPDVGSSDPLSMVEGSQGRSPSYASG	411 ± 51	10.5 ± 1.5	1961 ± 59	7.6 ± 1.1	0.85	0.81	Log(y) = −0.0416x + 2.431	~100 nM	125 ± 6.0	consuming chow at an equivalent rate to GLP1-ELP	significantly decreased GTT AUC compared to GLP1-ELP or ELP-FGF21	without a significant elevation in insulin	+0.3±0.2%	14.1±1.6	reversibility of phase change behavior ([1]; temperature ramped up to 37° C., then down to 20° C.): reversible; body weight % change on day 7 post-treatment (db/db mice [6]; 750 nmol/kg): −2.6±3.3%; blood glucose vs. time AUC (db/db mice [6]; 750 nmol/kg and 1000 nmol/kg, single s.c. injection, vs vehicle): Significant reductions; body weight % change on day 7 post-treatment (db/db mice [6]; 1000 nmol/kg): −2.7±3.7%; ambient blood glucose levels after treatment (db/db mice [6]; all doses, reduced from >300 mg/dL): < 150 mg/dL; persistence of blood glucose effects (db/db mice [6]; highest dose tested, 1000 nmol/kg): 8 days; persistence of blood glucose effects (db/db mice [6]; lowest dose, 250 nmol/kg): 4 days; duration of therapeutic drug levels and protection from hyperglycemia and weight gain (db/db mice [6]; single injection): > 7 days; reduction of body weights (maximum) (db/db mice [6]; two highest doses tested (750 and 1000 nmol/kg)): up to 7.2±2.3%; absorption half-life ([3]; linear regression fit to terminal portion of the data, 1000 nmol/kg s.c.): 182 ± 26.4 h; fasting blood glucose levels (db/db mice [4]; GTT 3 days following the final treatment): 92.7 ± 8.3 mg/dL; negative net weight gain values persisting through (db/db mice [4]; weekly dosing): 12 days; blood glucose levels after overnight 16 h fast (db/db mice [7]; 1000 nmol/kg s.c., fast begun 48 h post-treatment, threshold of hypoglycemia): 50 to 55 mg/dL; ad libitum-fed blood glucose levels (db/db mice [7]; 48 h post-treatment, 1000 nmol/kg s.c., vs vehicle): significant reductions; blood glucose levels during recovery (return to pre-injection baselines) (db/db mice [7]; t=60 to t=120 min post-challenge in GTT): -100 mg/dL
